Measured values published in the DeepSol protein solubility set.

assay: soluble on expression in E. coli; label from the status in PepcDB or PDB records

Sequence	soluble on expression in E. coli
MTWETVIGLEIHVQLNTKSKIFSGASTAFGAEPNAHASVVECALPGVLPVMNREVVEKAIKLGLALDAKINQKNVFDRKNYFYPDLPKGYQISQLDLPIVEHGKLEIVVGDDVKTINVTRAHMEEDAGKSVHEGLNGATGIDLNRAGTPLLEVVSEPEMRSAAEAVAYAKALHSLVTWLDICDGNMAEGSFRVDANVSVRPKGQEEFGTRREIKNLNSFRFLEQAINYEAEAQIEILEDGGKVQQATMLFDPEKGETRVMRLKEDAHDYRYFPDPDLLPVIISDAQMQKAKAEMPELPKEMAARFVADYGVSEYDARLLTASRAQAAYFEEAAKESGQGKLTANWMNGELAAALNKEGMELADSPITAPRLAALVGKIADGTLSSKLAKKAFEAMWAEPEATIAEIIEKHGLQQMTDTGEIEAMVDEVLANNAKAVEQFKSGNEKALNAIVGQVMKASKGKANPAQVQELIKAKLA	not soluble
MSLNVQGNLFRPLTLPNGLSLENRFVLSPMVTNSSTSEGFVTDDDIAYAVRRAKSAPLQITGAAYITEYGQLFEYGFSVSKDEDIPGLTKLAKAMKSKGAKAVLQLTHAGRFSSHTLARHGYVYGPSPMQLQSPYPHQVKELTHKDILRIIDEYVQATRRAIQAGFDGVEISSAQRLLIQTFFSTFSNQRKDEYGPQTLTNRCRLGLEVFKAVQKVIREEAESDFILGFRATPEETRGSQIGYSIEEFMEFLEKILAIAQVDYLAIASWGHDVFRNTIRSEGVYKGQLVNQVIFEHFGDRVPIMATGGINSASKVFEALQHAHMIGASTPLVVDPEFLQKIKAKCSDQINLRIKVSDLEGLAIPKEGHHHHHH	not soluble
MSLAEQKPGEGQKTAIKIGVMIDLSGPLTTYGNSIKNTLEIAKEDINAYLEEKGLPYTVEFYVEDTKVDPKIALEKIQSLHSKGINLVIGPMGSGEVSNIKGYVQSNKIIIISPSSTLLPSLLGITKPEDKKYIFRFVGTDDLQTDAITAELKDLGIKAVIITYTGNDWGKGLYETIKPKLDAAGIEIVGEPVEYPSPPPADFSPYIATLESKLNDALQKYDASEVAVVAFSYEEAATMLAQTKDDSPLLNVLWLGCDGTALSDKMLEVCDKASKVRMLSTLFESKGEAYEQLAKKYKERGFGDSPYQYALNAYDAAWVLVLSYIEVVKEKGSYDPDAMNAKIPEVTEKYSKGEYGVKPVSGYIKLNEWNDRASGDYAIYEVTQDCKWQTAGIWKFTENKIEWLEGHHHHHH	soluble
MNIVCIDTCFSSVAITAQGNAGTFTSVFTPAKARHSAILIPAIETAVKQAGFSINETDVLVCPQGPGGFTGLRLAYSTAKAIQLQTNARFFCVSILEALCSKYGDKNQFLSVIDAKRDCFYVQAFENKKPISEAFDIRAEDALKLIDKNKKTIICGFGTEKFNEEAGASIESNNITLIEADKETLSKTLLDCFLTNKNCKKVEDHEGPVYIRKSDAEY	not soluble
GNSKSGALSKEILEELQLNTKFTEEELSSWYQSFLKECPSGRITRQEFQTIYSKFFPEADPKAYAQHVFRSFDANSDGTLDFKEYVIALHMTSAGKTNQKLEWAFSLYDVDGNGTISKNEVLEIVTAIFKMISPEDTKHLPEDENTPEKRAEKIWGFFGKKDDDKLTEKEFIEGTLANKEILRLIQFEPQKVKEKLKEKKL	soluble
SLSAASILVVDDEESLRITLAANLELEGHLVLEASSGDEALRLLRERAVDVVLTDIRMPGLHGVELHRHLRREHPGLPVVLMTAFAQESLINDALAEGAFTVLPKPFDVEHLLETLRREG	soluble
PAKRAFSNADQFVETMLPLAKEAAARIGVDPVMLVAQAALETGWGKSIMRQQDGSSSHNLFGIKAAGSWKGAEARAITSEFRDGKMVKETADFRSYDSYADSFHDLVSLLQNNNRYKDVVNSADKPEQFVKELQKAGYATDPAYASKISQIAKQMKS	not soluble
MKSSVEKLSETRVKLNVEVPFEELKPEIDQAYKALAQQITIPGFRRGKAPRQLIDARIGRGAVLEQVINDMLPTRYQQVVEENELVVLGQPHIDITKLEDNEVVEFTAEVDVRPEITVPDFSAFAVEVPALKSNDEAIDAQIDKLRERFGELKDTKRKLKTDDFAIIDIEAAIDGEKLEEATTEGMSYQVGAGDLIDGLDTALRGLKAGESAEFTTTLKAGEHEGKEAAVTVTVQQTKERKLPELDEEFVQTASEFDTVEELRESIAEQVAEQAKAEQATAIRDEVLKAALAEATFELPEGVVEDQIHAQLHQLLNQVGGDEAALNAALEAQGTSREQFDADNRKNSEEAVRTQLFLDALAEQEQPEVSQQELTDHILFTAQSYGMDPNQFITQLQQSGQIGNLFSDVRRGKALAAAICRVSVKDDEGKAVDPSEYFGEEEESAEESE	soluble
MGSDKIHHHHHHMKIQNTEWGYIEWKHTYDENNPKQAMNIYIAVTMPGKKHFNHVHYGQEQMIYILEGEGLYIINGVWKPFYQGMIFYIESGSTHETINTGDREIKELIVSNNVDDVGESEIIDINPNNYLKKTLINYSESTLNLYAAVESIRGQFIDPFKIPLIIYDDSWNIVLKNPYFPLFCFEKCNPMKFPQNCDCMNQKSSNQFVCEYGITIYNIPILYKSNSIGVIRGGYVLLSDLNLDTEHNNLYDIPEGAARSIKRLLKQISKNIINFCSFNDIRKDLQEKEKTIARTYHYGEQLEMNLKVAQDMVTNLRINHHFLFNTLNSMASIALDDGSYDLYSAIIDLSRMFRYTMRSDLRFVELESEILYIKNYLNLQKLRYGDALKVKYLIPEKLYNLSVPFNFIQPIVENAFTHGFRDIDTEKRIEIIARLDSQYAIIEIHNNGTILDGNNIDKIKAGIRSNNGHGLSLIYTKFTSAYGNNFDMDIKSSDNEGTYIMIKIPIENYKEYV	not soluble
MSGHFNYIVVGRGMMGAAAARHLAETVDGVALIGPGEPADIKSHQGVFASHYDEARITRTIDGDPDWALLANRSIARYADIAARSGVEFYAPVGCLMVGPERGGANPFVDDVLRAAARLGVSTELLGDQSLKSRFPYFSFEPGCEGVFERDNAGYVNPRALVKAQAILAEKAGVTLIDDIVVSTREEDGRASVQTASGAVYTAERVLVAAGGFSITRDLLPQPVGLDVYARTVAFFEIDEGDLGQYAGMPSLIYEPHDTTKHIYLLPPVRYPDGKFYLKIGGDPDDKRVGSDPEIREWFRSGGRESVRDHLSEIVGTLVPSVDHSRVSMAACVVSKTKSGYPAIGFTASPRIAVLTGGNGTAAKSSDEIGRLGAALLRDGKIADDAFSTDFKPEFL	not soluble
MHHHHHHSSGVDLGTENLYFQSMEETEKWMEEAMHMAKEALENTEVPVGCLMVYNNEVVGKGRNEVNQTKNATRHAEMVAIDQVLDWCRQSGKSPSEVFEHTVLYVTVEPCIMCAAALRLMKIPLVVYGCQNERFGGCGSVLNIASADLPNTGRPFQCIPGYRAEEAVEMLKTFYKQENPNAPKSKVRK	soluble
MASSTTFVIVGGGLAGAKAVEALRRSDFGGRIILFGDEEHLPYDRPPLSKEFLAGKKSLSDFTIQTSDWYRDHDVDVRLGVRVSSLDRSAHTVELPDGAAVRYDKLLLATGSAPRRPPIPGSDAAGVHYLRSYNDAVALNSVLVQGSSLAVVGAGWIGLEVAASARQRGVDVTVVETAIQPLLAALGEAVGKVFADLHRDQGVDLRLQTQLEEITAADGKATGLKMRDGSTVAADAVLVAVGAKPNVELAQQAGLAMGEGGVLVDASLRTSDPDIYAVGDIAAAEHPLLGTRVRTEHWANALKQPAVAAAGMLGRPGEYAELPYLFTDQYDLGMEYVGHAPSCDRVVFRGNVAGREFLSFWLDGDSRVLAGMNVNVWDVVDDVKGLIRSGNPVDVDRLVDPQWPLADLTTN	not soluble
GMGVNMRAETESRIFSVDEYVRPSNGEPIRSVVLETNDSVVVVWHAHPGQEIASHVHPHGQDTWTVISGEAEYHQGNGIVTHLKAGDIAIAKPGQVHGAMNSGPEPFIFVSVVAPGNAGFALAEK	soluble
MSLDGMPAKQQHNNTGESVELHFHYPIKGKQEPKNSHLVVLIEPKIEINKVIPESYQKEFEKSLFLQLSSFLERKGYSVSQFKDASEIPQDIKEKALLVLRMDGNVAILEDIVEESDALSEEKVIDMSSGYLNLNFVEPKSEDIIHSFGIDVSKIKAVIERVELRRTNSGGFVPKTFVHRIKETDHDQAIRKIMNQAYHKVMVHITKELSKKHMEHYEKVSSEMKKRKEGHHHHHH	soluble
MSESAFKDCFSTDVSADTRLFHFLARDYIVQEGQQPSWLFYLTRGRARLYATLANGRVSLIDFFAAPCFIGEIELIDKDHEPRAVQAIEECWCLALPMKHYRPLLLNDTLFLRKLCVTLSHKNYRNIVSLTQNQSFPLVNRLAAFILLSQEGDLYHEKHTQAAEYLGVSYRHLLYVLAQFIHDGLLIKRKDI	not soluble
MELRVGNKYRLGRKIGSGSFGDIYLGANIASGEEVAIKLECVKTKHPQLHIESKFYKMMQGGVGIPSIKWCGAEGDYNVMVMELLGPSLEDLFNFCSRKFSLKTVLLLADQMISRIEYIHSKNFIHRDVKPDNFLMGLGKKGNLVYIIDFGLAKKYRDARTHQHIPYRENKNLTGTARYASINTHLGIEQSRRDDLESLGYVLMYFNLGSLPWQGLKAATKRQKYERISEKKMSTPIEVLCKGYPSEFSTYLNFCRSLRFDDKPDYSYLRQLFRNLFHRQGFSYDYVFDWNMLKFGAARNPEDVDRERREHEREERMGQLRGSATRALPPGPPTGATANRLRSAAEPVASTPASRIQPAGNTSPRAISRVDRERKVSMRLHRGAPANVSSSDLTGRQEVSRIPASQTSVPFDHLGK	not soluble
MGSDKIHHHHHHMNLWTSTPPMLRQISVRAAMDILLHQGPTSRADLAKKTGLSKQTMSEVIRTLETAGWVRVKGIVSGKVGRSAVTYEVAPDAGFVIGMDIGATTIRVAIADIAGTIVHEVEKSAGEHGGEALLAHVSGVVEASLKKARVSRSKVLLAAVAMPGVIDPETGRLSLAPNLSEIGSLDVIKALQGIFRCDVIIENDVNAAVIGESWKGSGIGLDSVAFVSLGTGIGLGVLFNGKLMRGAKGAAGEIGYLPFGADPYNSESLERGALECAIGARGILERYGNPGDGGMTVRDILEAAEKGDAKALATVQETARLAALLVVSVHAMLDPGKIILGGNVGRNPLMVRMVKEALATSTRSSISLEASTLASRATLVGAVAIALNQLHNALFSPQDLPSEMRLPA	not soluble
MKNLPISIGRIVMQGGHVNFQDQFIQPNYRAYLTDLAGRIGPLNPRKTGEVDIRGAVDKTAPLKISGSVDAFGRELNLDITASAKGIDMPTFSPYSGKYIGYAIEKGKLSVDVHYHVEHGELTAENSIFLDQLTFGEKIESPDAVSIPVNLALALLEHHHHHH	not soluble
MAMLELLYTALLYLIQPLIWIRLWVRGRKAPAYRKRWGERYGFYRHPLKPGGIMLHSVSVGETLAAIPLVRALRHRYPDLPITVTTMTPTGSERVQSAFGKDVQHVYLPYDLPDALNRFLNKVDPKLVLIMETELWPNLIAALHKRKIPLVIANARLSARSAAGYAKLGKFVRRLLRRITLIAAQNEEDGARFVALGAKNNQVTVTGSLKFDISVTPQLAAKAVTLRRQWAPHRPVWIATSTHEGEESVVIAAHQALLQQFPNLLLILVPRHPERFPDAINLVRQAGLSYITRSSGEVPSTSTQVVVGDTMGELMLLYGIADLAFVGGSLVERGGHNPLEAAAHAIPVLMGPHTFNFKDICARLEQASGLITVTDATTLAKEVSSLLTDAVYRSFYGRHAVEVLYQNQGALQRLLQLLEPYLPPKTHLEHHHHHH	not soluble
SPVTKCPRKVEPPWKGWDRKAQKNGLRHQVFAVNGDHYVGEWKGNLKHGKGTQVWKKSGAVYEGDWKFGKRDGYGSLSHPDPETGKLRRVYSGWWKGDKKSGYGIQFFGPKEYYEGEWCNNQRSGWGRMYYNNGDIYEGQWQNDKPEGEGMLRLKNGNRYEGIWERGMKNGHGRFFHLDHGQLFEGYWVDNVAKCGTMIDFGRDEAPEPTQFPIPKVEILDPDGVLKEALDKLMKPEEEEG	soluble
MIRKHSATLHGHRTSISLEDAFWDELKIIAERRKVSFAALLAEIDDSRPADSNLSSSLRVYVLNWLKTR	not soluble
